The data set deals with the molecule itself. Nature of the data set: cryo-EM structure.

B1: Hrd1, truncated after the RING finger domain (amino acids 1-407) (domain or fragment, S. cerevisiae, UniProt Q08109 1-407, looked up)
chain: MVPENRRKQLAIFVVVTYLLTFYCVYSATKTSVSFLQVTLKLNEGFNLMVLSIFILLNSTLLWQLLTKLLFGELRLIEHEHIFERLPFTIINTLFMSSLFHERYFFTVAFFGLLLLYLKVFHWILKDRLEALLQSINDSTTMKTLIFSRFSFNLVLLAVVDYQIITRCISSIYTNQKSDIESTSLYLIQVMEFTMLLIDLLNLFLQTCLNFWEFYRSQQSLSNENNHIVHGDPTDENTVESDQSQPVLNDDDDDDDDDRQFTGLEGKFMYEKAIDVFTRFLKTALHLSMLIPFRMPMMLLKDVVWDILALYQSGTSLWKIWRNNKQLDDTLVTVTVEQLQNSANDDNICIICMDELIHSPNQQTWKNKNKKPKRLPCGHILHLSCLKNWMERSQTCPICRLPVFDEK
A word on the stoichiometry N: it is the number of molecules, sites or subunits per partner or assembly. B1: the “stoichiometry N” value was 2.

Source of the values: PMC5736104 (Nature, 2017).
